T1: LRRK2 Roc domain construct (human, UniProt Q5S007 1329-1520)
T1 construct: not shown: N-terminal His6-tag of pET-28a
T1 sequence: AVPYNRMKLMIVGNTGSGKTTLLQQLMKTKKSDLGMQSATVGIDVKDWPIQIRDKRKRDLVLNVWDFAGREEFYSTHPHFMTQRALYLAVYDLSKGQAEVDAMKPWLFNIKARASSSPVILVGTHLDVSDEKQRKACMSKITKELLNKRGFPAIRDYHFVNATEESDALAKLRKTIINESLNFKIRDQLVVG

T2: LRRK2 RocCOR domain construct (human, UniProt Q5S007 1334-1840)
T2 construct: A second construct (residues 1293-1840, N-terminal His6-MBP) was used in certain screening experiments; not shown: N-terminal Twin-Strep-tag; C-terminal His10-tag
T2 sequence: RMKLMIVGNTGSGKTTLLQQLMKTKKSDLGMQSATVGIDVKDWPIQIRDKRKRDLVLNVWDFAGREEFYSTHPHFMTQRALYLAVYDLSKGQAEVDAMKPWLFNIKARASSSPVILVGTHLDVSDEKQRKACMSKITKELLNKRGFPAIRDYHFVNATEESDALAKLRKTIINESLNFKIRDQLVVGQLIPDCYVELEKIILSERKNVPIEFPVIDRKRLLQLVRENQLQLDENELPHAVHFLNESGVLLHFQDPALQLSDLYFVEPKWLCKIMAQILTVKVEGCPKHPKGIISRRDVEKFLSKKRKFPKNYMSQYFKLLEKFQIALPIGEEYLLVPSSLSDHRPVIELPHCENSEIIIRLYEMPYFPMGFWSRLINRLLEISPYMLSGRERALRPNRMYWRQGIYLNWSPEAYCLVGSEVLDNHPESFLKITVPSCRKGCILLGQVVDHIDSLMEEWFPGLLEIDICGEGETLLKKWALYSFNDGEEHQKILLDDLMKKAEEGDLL


Columns and labels:
[1] = molecular target: T3, LRRK2 COR-B construct (C-terminal part of the COR domain), His6-MBP tagged (human, UniProt Q5S007 1672-1840); test: ELISA, antigen coated on the plate, purified Nb detected via its EPEA tag
T3 construct: also called (MBP-)COR-B; not shown: N-terminal His6-MBP-tag of pDEST-566
Excerpt: (§1) We recombinantly expressed and purified the RocCOR, Roc, COR-B and kinase-WD40 (K-WD40) domain constructs of LRRK2 (FIG. 7). Subsequently, we performed an ELISA in which all these domain constructs were coated in parallel next to each other in the same ELISA plate, and where we subsequently detected binding of the 42 purified Nbs. […] To enrich in Nbs directed against the Roc domain we specifically included a selection step with either Roc-GTPγS or Roc-GDP.

[2] = molecular target: T1, LRRK2 Roc domain construct; test: as above
Excerpt: as §1

[3] = molecular target: T2, LRRK2 RocCOR domain construct; test: as above
Excerpt: as §1

LRRK2(G2019S) = molecular target: T4, LRRK2(G2019S) (Homo sapiens, UniProt Q5S007, G2019S/M2397T/R50H); test: In cellulo phospho-Rab / LRRK2 autophosphorylation assay in HEK293T cells; type: cell-based; details: HEK 293T cells co-expressing LRRK2(G2019S), Rab29 and Nb-GFP; for influence on LRRK2 kinase activity compared to the controls: Western blot
T4 construct: SF tag (FLAG + Twin-Strep); expressed in transfected cells; host or cells: HEK 293T
Experimental: (FIGS. 2A-2C) LRRK2(G2019S) and its effector Rab29 were overexpressed together with GFP-fused Nbs (“Fluobody”) in HEK293T cells. A negative control, where no Nb is overexpressed (“No Nb”) is also included. […] In rows labeled “pLRRK2”, LRRK2 pS1292 levels are determined by Western Blot using a site-specific anti-pLRRK2(pS1292) antibody (Abcam, ab203181) (shown at different times of development). In the rows labeled “pRAB10”, endogenous pT72-Rab10 levels are determined by Western Blot using the MJFF/Abcam antibody MJF-R21 (Abcam, ab230261) (shown at different times of development). The three lower rows contain controls of LRRK2 (rat anti-LRRK2, 24D8), Fluobody (rat anti-GFP) and Rab10 (rabbit anti-Rab10) expression levels. (FIG. 2D) Based on the results of panels (FIGS. 2A-2C) the Nbs can be divided into 4 functional groups, with group 1: Nbs that inhibit both LRRK2 autophosphorylation and Rab10 phosphorylation in cells; group 2: Nbs that inhibit only Rab10 phosphorylation; group 3: Nbs that activate LRRK2 kinase activity; group 4: Nbs that have no consistent/clear effect on LRRK2 kinase activity.
To assess the influence of the Nbs on LRRK2 kinase activity we monitored two physiologically and disease relevant activities of LRRK2: phosphorylation of the endogenous substrate Rab10 at position T72 and LRRK2 autophosphorylation at position S1292 [25-30]. […] In our cellular assay we thus co-expressed LRRK2(G2019S), Rab29 and the different Nb-GFP fusions in HEK 293T cells (FIG. 2a-c).
HEK 293T cells were cultured in DMEM (supplemented with 10% Fetal Bovine Serum, […] L-Glutamine and 0.5% Pen/Strep). For the assay, the cells were seeded onto six-well plates and transfected at a confluency of 50-70% with the individual Nb-GFP expression constructs, SF-tagged LRRK2(G2019S) and FLAG-HA Rab29 using a self-made polyethylenimine (PEI)-based transfection reagent. After 48 hrs cells were lysed in lysis buffer [30 mM Tris-HCL (pH7.4), 150 mM NaCl, 0.5% Nonident-P40, complete protease inhibitor cocktail, phosphatase inhibitor cocktail II & III (all Sigma)]. Lysates were cleared by centrifugation at 10,000×g and adjusted to a protein concentration of 1 μg/μl in 1× Laemmli Buffer. Samples were subsequently subjected to SDS PAGE and Western Blot analysis to determine LRRK2 pS1292 and Rab10 T72 phosphorylation levels, as described below. Total LRRK2 and Rab10 levels were determined as a reference.
For western blot analysis, protein samples were separated by SDS-PAGE using NuPAGE 10% Bis-Tris gels (Invitrogen) and transferred onto PVDF membranes (Thermo Fisher). To allow simultaneous probing for LRRK2 on the one hand and Rab and the Nb-GFP fusions on the other hand, membranes were cut horizontally at the 140 kDa MW marker band. After blocking non-specific binding sites with 5% non-fat dry milk in TBST (1 h, RT) (25 mM Tris, pH 7.4, 150 mM NaCl, 0.1% Tween-20), membranes were incubated overnight at 4° C. with primary antibodies at dilutions specified below. Phospho-specific antibodies were diluted in TBST/5% BSA (Roth GmbH). Non-phospho-specific antibodies were diluted in TBST/5% non-fat dry milk powder (BioRad). Phospho-Rab10 levels were determined by the site-specific rabbit monoclonal antibody anti-pRAB10([…]) (Abcam, ab230261) and LRRK2 autophosphorylation was determined by the site-specific rabbit monoclonal antibody anti-pLRRK2(pS1292) (Abcam, ab203181), both at a dilution of 1:2,000. Total LRRK2 levels were determined by the in-house rat monoclonal antibody anti-pan-LRRK2 (clone 24D8; 1:10,000). Total Rab10 levels were determined by the rabbit monoclonal antibody anti-RAB10/ERP13424 (Abcam, ab181367) at a dilution of 1:5,000. Nb-GFP fusion proteins were detected using the rat monoclonal antibody anti-GFP (clone 3H9, ChromoTec) at a dilution of 1:2,000. For detection, goat anti-rat IgG or anti-rabbit IgG HRP-coupled secondary antibodies (Jackson ImmunoResearch) were used at a dilution of 1:15,000 in TBST/5% non-fat dry milk powder. […]

T4 sequence (Q5S007 whole entry R50H/G2019S/M2397T): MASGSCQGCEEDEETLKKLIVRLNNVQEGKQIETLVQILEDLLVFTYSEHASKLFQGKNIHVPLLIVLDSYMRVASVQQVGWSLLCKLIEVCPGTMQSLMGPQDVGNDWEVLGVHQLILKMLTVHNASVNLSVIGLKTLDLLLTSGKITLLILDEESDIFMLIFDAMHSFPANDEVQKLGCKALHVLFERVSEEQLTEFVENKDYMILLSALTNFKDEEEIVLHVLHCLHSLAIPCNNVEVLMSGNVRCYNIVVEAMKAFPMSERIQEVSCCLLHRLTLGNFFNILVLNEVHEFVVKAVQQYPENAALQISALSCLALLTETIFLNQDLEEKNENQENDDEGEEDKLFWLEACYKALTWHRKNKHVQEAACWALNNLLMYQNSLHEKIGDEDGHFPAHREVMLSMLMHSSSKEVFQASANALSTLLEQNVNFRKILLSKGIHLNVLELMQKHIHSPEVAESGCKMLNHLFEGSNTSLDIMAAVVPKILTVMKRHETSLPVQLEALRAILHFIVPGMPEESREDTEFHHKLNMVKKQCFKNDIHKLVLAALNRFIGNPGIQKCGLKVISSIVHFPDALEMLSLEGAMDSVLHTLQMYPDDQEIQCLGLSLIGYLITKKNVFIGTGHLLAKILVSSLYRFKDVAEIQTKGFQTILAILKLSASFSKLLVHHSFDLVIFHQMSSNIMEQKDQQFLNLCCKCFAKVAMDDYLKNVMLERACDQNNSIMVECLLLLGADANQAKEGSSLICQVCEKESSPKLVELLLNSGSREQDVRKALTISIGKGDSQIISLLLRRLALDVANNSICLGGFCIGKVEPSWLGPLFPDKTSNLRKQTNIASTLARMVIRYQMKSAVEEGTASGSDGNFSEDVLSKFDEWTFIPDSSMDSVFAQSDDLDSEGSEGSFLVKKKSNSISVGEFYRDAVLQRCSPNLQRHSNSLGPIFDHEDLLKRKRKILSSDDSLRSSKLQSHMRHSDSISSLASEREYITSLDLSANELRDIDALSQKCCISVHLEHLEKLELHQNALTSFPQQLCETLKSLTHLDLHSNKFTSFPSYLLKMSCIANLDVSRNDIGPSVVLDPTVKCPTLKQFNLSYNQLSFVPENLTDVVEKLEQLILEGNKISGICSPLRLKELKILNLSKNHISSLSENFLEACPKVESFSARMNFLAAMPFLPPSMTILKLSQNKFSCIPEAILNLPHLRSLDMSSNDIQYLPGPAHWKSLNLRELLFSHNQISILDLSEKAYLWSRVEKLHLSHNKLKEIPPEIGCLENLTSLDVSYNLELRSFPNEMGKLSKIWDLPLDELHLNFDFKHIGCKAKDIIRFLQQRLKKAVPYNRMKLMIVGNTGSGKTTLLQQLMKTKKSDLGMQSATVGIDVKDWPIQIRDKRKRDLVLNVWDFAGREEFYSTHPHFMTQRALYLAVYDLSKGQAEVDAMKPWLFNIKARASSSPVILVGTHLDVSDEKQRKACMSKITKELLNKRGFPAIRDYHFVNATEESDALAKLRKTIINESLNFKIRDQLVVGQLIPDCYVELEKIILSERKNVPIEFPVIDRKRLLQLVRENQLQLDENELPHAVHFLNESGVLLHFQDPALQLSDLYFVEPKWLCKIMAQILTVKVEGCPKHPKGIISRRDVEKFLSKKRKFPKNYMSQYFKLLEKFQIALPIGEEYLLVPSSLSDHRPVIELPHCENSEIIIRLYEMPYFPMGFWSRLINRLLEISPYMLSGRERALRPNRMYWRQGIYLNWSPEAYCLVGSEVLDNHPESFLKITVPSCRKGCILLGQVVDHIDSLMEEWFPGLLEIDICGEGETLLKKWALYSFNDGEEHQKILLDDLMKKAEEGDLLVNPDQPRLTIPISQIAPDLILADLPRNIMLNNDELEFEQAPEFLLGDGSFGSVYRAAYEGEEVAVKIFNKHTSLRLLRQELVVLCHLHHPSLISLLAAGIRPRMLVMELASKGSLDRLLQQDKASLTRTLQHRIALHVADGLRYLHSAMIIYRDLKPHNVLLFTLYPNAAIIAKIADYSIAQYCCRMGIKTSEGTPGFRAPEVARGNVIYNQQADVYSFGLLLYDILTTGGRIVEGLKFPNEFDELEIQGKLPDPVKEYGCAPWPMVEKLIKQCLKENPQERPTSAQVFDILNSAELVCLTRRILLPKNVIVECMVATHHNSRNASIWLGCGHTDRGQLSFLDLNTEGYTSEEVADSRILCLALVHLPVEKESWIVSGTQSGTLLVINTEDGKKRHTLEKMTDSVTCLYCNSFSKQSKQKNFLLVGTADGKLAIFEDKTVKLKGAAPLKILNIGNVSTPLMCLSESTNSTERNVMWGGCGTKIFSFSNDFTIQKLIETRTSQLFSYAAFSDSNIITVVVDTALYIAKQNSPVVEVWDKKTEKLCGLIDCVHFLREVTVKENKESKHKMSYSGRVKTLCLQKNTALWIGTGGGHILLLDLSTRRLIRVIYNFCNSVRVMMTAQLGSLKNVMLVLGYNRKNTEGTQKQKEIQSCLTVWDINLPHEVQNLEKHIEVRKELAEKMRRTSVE

Molecule	LRRK2 autophosphorylation at position S1292 (LRRK2(G2019S))	influence on LRRK2 kinase activity compared to the controls (LRRK2(G2019S))	also measured
Nb9 (CA13598) (VHH) VHH: QVQLVESGGGLVQPGGSLRLSCAASGSIFSINAMGWYRQAPGKQRELVAAITSGGRTNYADSVRGRFTISRDHAKNTVYLQMNSLKPEDTAVYYCNAGDWQTMYDYWGQGTQVTVSS	–	–	binding result [1]: no binding (tested: not given); binding result [2]: no binding (tested: not given); binding result [3]: no binding (tested: not given)
Nb41: LRRK2-specific Nanobody, SEQ ID NO: 12 (protein, Nanobody CA14136) VHH: MAQVQLVESGGGLVQAGGSLRLSCEASVRTFSFYSMGWFRQAPGKEREFVAAIRWTAGSTSYADIVKGRFTISRDNGKNTVVLQMNSLEPEDTGVYYCAAQRGYLVEAASREYDYWGQGTQVTVSS	inhibiting S1292 phosphorylation at a lesser extent	strongly decreased LRRK2 autophosphorylation and/or Rab10 phosphorylation	Rab10 phosphorylation at position T72 (LRRK2(G2019S); endogenous Rab10): inhibit Rab10 phosphorylation
Nb28: LRRK2-specific Nanobody, SEQ ID NO: 18 (protein, Nanobody CA13617) VHH: MAQVQLVESGGGLVQAGGSLRLSCAASGIIFHWYDMDWYRQAPGKQRELVATITTGGRADYADFVKGRFSISRDNAKTTVYLQMNSLKPEDTAVYYCSFQDHVLRRWGQGTQVTVSS	–	significant increase of LRRK2 kinase activity	–
Nb3: LRRK2-specific Nanobody, SEQ ID NO: 11 (protein, Nanobody CA12614) VHH: MAQVQLVESGGGLVQPGGSLRLSCAASGSIFRRNAMGWYRQVTGKERELVAGITSGGYTNYRDFVKGRFTISRDNAKNTVYLQMNNLKPEDTAVYYCNLLSEMLQTVWGQGTQVTVSS	somewhat stronger inhibitory effect towards LRRK2 autophosphorylation	no influence on LRRK2 kinase activity	–
Nb9: LRRK2-specific Nanobody, SEQ ID NO: 17 (protein, Nanobody CA13598) VHH: MAQVQLVESGGGLVQPGGSLRLSCAASGSIFSINAMGWYRQAPGKQRELVAAITSGGRTNYADSVRGRFTISRDHAKNTVYLQMNSLKPEDTAVYYCNAGDWQTMYDYWGQGTQVTVSS	–	no influence on LRRK2 kinase activity	–
Nb10: LRRK2-specific Nanobody, SEQ ID NO: 15 (protein, Nanobody CA13599) VHH: MAQVQLVESGGGLVQPGGSLRLSCAASGSIFSIYAMGWYRQAPGKQRELVAAITSGGDTNYADSVKGRFTISRDNAKNTVYLQMNSLKPEDTAVYYCNADHTPAGTFQTFDYWGQGTQVTVSS	–	no influence on LRRK2 kinase activity	–
Nb13: LRRK2-specific Nanobody, SEQ ID NO: 16 (protein, Nanobody CA13602) VHH: MAQVQLVESGGGLVQPGGSLRLSCAASGSGFSIYAMGWARQAPGRQRELVAAITSGGSTNYADSVKGRFTISRDNAKNTVYLQMNSLKPEDTAVYYCNADITVVAGSTYDYWGQGTQVTVSS	–	no influence on LRRK2 kinase activity	–
Nb31: LRRK2-specific Nanobody, SEQ ID NO: 13 (protein, Nanobody CA13620) VHH: MAQVQLVESGGGLVQAGGSLRLSCATSGLTFGTYAMAWFRQAAEKEREFVAFISGRGGYRDYADSVKGRLTIFRDNAKNNAKNTVYLQMNNLKPEDTAVYYCAARQGSPVRSKEEYNNWGQGTQVTVSS	–	no influence on LRRK2 kinase activity	–
Nb37: LRRK2-specific Nanobody, SEQ ID NO: 14 (protein, Nanobody CA14131) VHH: MAQVQLVESGGGLVQPGGSLRLSCAASGSVFSTNTMAWFRQAPGKQREWVGGITPGGFTNYINSVKGRFTISRDNANNTIYLQMSSLRPEDTAVYYCNTLSRMALWGQGTQVTVSS	somewhat stronger inhibitory effect towards LRRK2 autophosphorylation	no influence on LRRK2 kinase activity	–
